Measured values as given in the domain aggregation screens of Martell et al. (2025).

Experiment: soluble fraction after stress (log2 fold change); higher = more stays soluble; pooled small domains, quantitative proteomics
Conditions: stress: 75 degC
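Also: 20 min heating vs room temperature control held 20 min.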

HMHDITPAVAETFKQLRAERGLSLSQAAQLTGVSKAMLGQIERGQSSPTVSTLWKIATGFNVAFSVFL
soluble fraction (log2): -2.56

HMHDLGEQIIEKLRASGGISTLTDKSDPDAIYRQFKVSKKKYKQALGTLYKSRRITLAPNQIKLA
soluble fraction (log2): -0.293

HMHDPLATLTPREHEVMSLMAEGRTNAAIAQALVIGTGAVEKNVTSIFQKLGLDDSGTDHRRVLAVLAWLQ
soluble fraction (log2): -2.13

HMHDRRSGKVKWYSDRKGYGFIDLDGGEVFIHRSALIAFGALRLQAEDIITITVRETDRGLVVDQLFGIER
soluble fraction (log2): -1.66

HMHEAILNQIRNEELMLYIGELSDAQQDVILLKYFHQMTFKEIAESFSIPISTVKTRHTAALKKLSTLWK
soluble fraction (log2): -0.36

HMHESLAEVAARKLRALIVTGELAPGERVTEAGLTDLLEISRTPAREAIRILSSEGLLVVFPNRGAEVV
soluble fraction (log2): -0.94

HMHEYSDIEHRILDAAREVFIRKGYDSATMGDIALLAGMSRTSVNYYFRNKERLFEAIFEEII
soluble fraction (log2): -1.91

HMHFDQILAHAMDERGMNAVQLASLTGLSSGAISRYLAGDRQPTVYSIQQIAKALGVSADYLVG
soluble fraction (log2): -1.19

HMHGEAEFLDATAVVMEKLNPGGLVKIKGEIWQAVSKDGHTIQEGEKVRVFERQGITLLVGHF
soluble fraction (log2): -0.876

HMHGTIHSAAYGGDIEAVKKFLAAGADVNANGGGRTPLDLAIQVKNTEIADLLRKHGGKTGDELKA
soluble fraction (log2): 0.547

HMHGYLSDPAARLIRARRKTLSIRITQEGNLEIRAPLGMPKGEIEAFLKEKAQWIETHRAKVLAEYA
soluble fraction (log2): -2.84

HMHHDQQQITAELARIARNGLPGLTADNAIISRLDALNLLINIHDDRGADATPLRGLLPAIADELLRLT
soluble fraction (log2): 0.056

HMHHIDTAWFRGKMREHRLTQEAVGQAIGLERSMVSKIIKGTVSFNARKASAWAQLLRVSESEILERVGI
soluble fraction (log2): -2.58

HMHHIDYKQLRRINPVAARRAVLDYLESTGGNITKTAQVFSINRSVVYDILKKQASGDLSDRLRIP
soluble fraction (log2): -2.04

HMHIDQVIRERRLALGLTQEELANKIGVSAPAVSKWEKRVSYPDITLLPALARILGTDVNTLLTFS
soluble fraction (log2): -1.08

HMHIVQEGDSLYGIARQYRITVEELRSLNALETADVIVPYQKLYV
soluble fraction (log2): -0.851

HMHKPLRILVYEELRMLIMTGQIKPGTRMMEIDLAESMGVSRTPVREAIRQLEKDNLVTIEPRRGAYVSD
soluble fraction (log2): -2.71

HMHKYQVGETVYYTSPTFGRAAATGSYIVVKLLPSEGDDYQYRIKSSGEAFERVAKESQLDR
soluble fraction (log2): -0.57

HMHLIPRESTYEIDGRRFVVDSVNLDFGKVSLQDITFRNATGFPIFRSESIEFMRRLVEISEAQRIAEL
soluble fraction (log2): -0.0447

HMHLPDNAVSIISELKMTPEEVLELIGKLPHDFLFLPYSQRKKIIVDLIPNKDYKLLMSLIKKFML
soluble fraction (log2): -1.62

HMHLTRYQYKVETEQEAVGLKELSSVHDLQIKENEATFQADSDAIDEILKTLLLYGVKKLEATPPTLED
soluble fraction (log2): -0.211

HMHMSLTEKYKELTDLAVSAGVQNLNVREQDGVLYVDGDASGAVKQQLWDTYGKLDPDYTSGDLVLNI
soluble fraction (log2): 0.279

HMHNSPSPVATTILRFLQPVRAFVGDTEDMRTFGPFLREDVAMVPASQAKNLIRSGHAVEINP
soluble fraction (log2): -0.0107

HMHNSQTIIDNIKRIANEQNISLSKLAVISGLGKNTITSMTAKTNIKIETLTAIAKSLNVSIHDLTGE
soluble fraction (log2): -2.64

HMHPDHRTATVPDAAAGRRFDAVLAELFPQFSRSKLTTWIKSGEVLLNGEVPRPRDAVVGGETVSLNVVL
soluble fraction (log2): -0.554

HMHPMVEAYLADLDRALSGSDPREHAETMSAVREHLADAIAPDATAEQVRHALDELGPVEAIAAG
soluble fraction (log2): 0.0321

HMHPQISVEGVLPLKEAVEFVEREIISHAYSRYRATREVARHLGIDPSTVLRKAAKYGITVEPGKN
soluble fraction (log2): -1.07

HMHPRDREENKYLLLRGERIYEESIGEKRLYVEAALHKYEKALSSYDTGLIDEAKEEFKKFLEEIEEA
soluble fraction (log2): -0.271

HMHPVEPDDPDQHILFQHLRGQDQVHIDALIRLSGWTADKVSSTLLFMELQGLVKQLPGMYYALE
soluble fraction (log2): -0.806

HMHQAADFAGFITFNKDGVEQFSFGKYKNQTVVSVLEKDPGYYSWIQNADFPLYTKKILTAIRLAM
soluble fraction (log2): -1.06

HMHQALLEQSAEHAQQVKAYELLLTAERALDEENTEAFLSAMKSLKPLAENLDAKGKALYQELLPFVTEA
soluble fraction (log2): 0.485

HMHQAVTVTKPARLFTGPDGKGVVRSLDVGMMLYPTGEKQGMMWEVEDELGNKGWVSSTLLELS
soluble fraction (log2): 0.0637

HMHSEEAALLHRYIDSLEEPQHTVVVMRDIGGYSFEEIASVVQLKEAHIWMILSRARRKLRELYIKTMDHH
soluble fraction (log2): 0.0533

HMHSFFGDNIKKLRTAKKMSQEQLADIFGITKAGISYWETGRSEPNFATVQKLADFFGVTTSDLLGEA
soluble fraction (log2): -0.43

HMHSFGLHVRNLRKKSNLTLSQLSNASGLSLSAISKIENNQISPSFINLIRLAEGLKMHIADLVTVK
soluble fraction (log2): -2.2

HMHSGFHSAILDVDRAVKEGKTLYEALNKYPYIFDETFRSLVRAGEASGELPSILSKLALYLEEQSK
soluble fraction (log2): -2.04

HMHSLLDDIPNVGEKRKRILLTHFQSLEEIKAATVEELERLPQINRKAAESIYTFFHSQPIR
soluble fraction (log2): -0.735

HMHSRLEDIPGIGPRRRAMLLRHFGGLAELKAAGVEEIARVEGINMALAQRLWRALHGVPDPT
soluble fraction (log2): -0.641

HMHSVIALTIPADYAGLRLDQALAKLLPNWSRSRLQTWIAENRVILDGQITTIKQKVWGNELIQISPQD
soluble fraction (log2): -1.67

HMHTDQVLVMTRAVGQGEIVRNTDVGLTSVAVDRAVTTIPASQLDEIVGRHALVDLSAGQLLGSHSVGA
soluble fraction (log2): 0.109

HMHTNNALWAIADDMRARKDDGEFDTYREGYKWAANNIVKEGIHITAIKLEKAYHKAKSEGKV
soluble fraction (log2): -0.139

HMHVSIAENIRRIRTQHDMTQEEFGKVAAVSAMAVSQWENGRAVPRMGAVQRIADYFNISKGEVID
soluble fraction (log2): -0.699

HMHWDIAQADAKQEVMDSSDDKEAIERIQANMFKDPKDHDQEYANKILNDMIDEIKEKGLEAMQHKFAQE
soluble fraction (log2): -0.443

HMHYELTPDAEKQLSALGLTAELVERILEEANDRRPIPGTNRTVYSLHGYSVEFSNTNHKIVSVRKG
soluble fraction (log2): -0.882

HMIAAPFVVKDIRVDGVQPATGEAIISSLPVKVGQTATDADVSNVVRQLFSLNRFQNVQATREGNTLVIKV
soluble fraction (log2): -0.0493

HMIAGHLQIKNDYYYMVLSYTDSDGKRKQPWIPTGLPMKGNKKRAEKMLIETRQTYVPPVSSG
soluble fraction (log2): -3.41

HMIAIGDDARLDDAARFFRIAEDSYAAGDYRKSKENYIEARKLYAELGDHEKVNLINSKISAIDSIT
soluble fraction (log2): 0.0977

HMIAVIKPSATAEQKAGLVDWIRGQGIDVHISEGHDYTVLGLIGDTSKIDMDLIASLDIVDSVKRVA
soluble fraction (log2): -0.338

HMIDAHTTLLAKRLESKGFLALTDKSSAEEIYEEFGISKKAFKKALGALYKERLVRIGEDGVVWM
soluble fraction (log2): -1.67

HMIDDPTAVILRLVSEKQVIRRDDVVKALSVTPQKAYRLLKTMTTGGLLTRSGARRTTVYGLPDARER
soluble fraction (log2): 0.223

HMIDEKVQAADKSIEIGNLSPLKGLVTDDEMHELEKLFEKVMALKDFEVNDVGAGRKYIEAYVSFFKFAEG
soluble fraction (log2): -0.418

HMIDELNVGDIRFYLNRYGKEIQIEIIRIGDDGSVYARTMADNALFRVPEARLKNIGEKVPAEEVQRG
soluble fraction (log2): -1.42

HMIDFTHEDIERLWNAIVHYVPERQKSDMAIDFIKSLEDIGVEHDEIKASAEYDPKLEEAINTVY
soluble fraction (log2): -0.424

HMIDIDNLEKAAILLLSMGTEAAAKVMQKLSRDEVQRLISKMASLSGVSSIEAKWTLQQFFNQYREQSG
soluble fraction (log2): -0.786

HMIDLSELINKTGSAYTNLRPSGTAVIGDDRVDVVTEGTFVEKDRPVKVVAVEGQRVVVREVE
soluble fraction (log2): 0.209

HMIDMQIDTARFGTLGVDDDKIITFPKGLPGFEDERRFFLMDHSGSSKIKWLHSADNPGLALV
soluble fraction (log2): -0.0491

HMIDVGSKIRSLRKSKNISISTLAKNSDLSTGLISQIERNMVVPSIVAMWKISKALDINIGYFFE
soluble fraction (log2): -3.13

HMIEDMQQYIKEIRQMVSGRLDMTRNLEDEEIRDTIAELVAEESRKQYMTLTEKREVIEGVFNSMR
soluble fraction (log2): -0.0831

HMIEEIAVPEILGMQEEEAKAKIEGLGLVFNVTDRVKSNEYEKGEVMYQSVGPDDTTVKSGYPINVTISEG
soluble fraction (log2): 0.196

HMIEEIPYSQFMSMLEEGKIDKAEIYQDSIIFSTKPDEQGKAGYYSIAYMKDNVLADRLYDAGVEFTPII
soluble fraction (log2): 0.293

HMIEGEQVRLLRLLERQEGGMLPLGDKSPASDILLLTGMSKKTFKMAVGALYKAQMITMTPTSIKLVK
soluble fraction (log2): -3.18

HMIEGETPEQTMERVSKDPEIVQILQDPVMQGILAQARENPAALQDHMKNPEVYKKINMLIAAGVIRT
soluble fraction (log2): 0.278

HMIEGSSDWKPNMILDDGGDLTKIIHEEYQDLLDDIRGLSEETTTGVLRLYEMEKENSLAVPAINVND
soluble fraction (log2): 0.171

HMIEKGSDALEKELRKNNLSINEFLTNKNIDIILDELKLKDIDDLYVNIALGKYTPNQIIKIVNK
soluble fraction (log2): -0.0502

HMIELEGVISSVLAGTMFKVKLRGNGHEVLAHISGKMRKKFIRLVIGDAVKIEMSPYDMDKARIVYRI
soluble fraction (log2): -0.318

HMIELTTDYKKRVVEALVSARENYSGSDSDFARKWSIDKTVYSRLKKGYQEGLLSVGKYIELGMELNVSSR
soluble fraction (log2): -1.87

HMIENITIELNKKALALDFELNKDLPEGVLETIPTLVSLMVRFDPLTVSYHFLRDYIDALLESNLNVDL
soluble fraction (log2): -0.0886

HMIENMQEYVRHIRAAVSDRLDLTREVEDDEIREVISQIVAEESRQNYLSLGERQTVIETVFNSMR
soluble fraction (log2): -0.339

HMIERLVEFVHTLRHSGVRVSMAEAMDAAEALRHTPITERQIFKTALQSVLVKEHQDIPAFDAAFERFFL
soluble fraction (log2): -3.04

HMIESLKGILHKKDPTIAIIDVGGVRLSVNITLSTYEKLEEINSSIELLTYFNVREDAMELYG
soluble fraction (log2): -0.468

HMIETIIGAEGKVLETIDNFNQKGVVALAGKEWTARSADASIIPEGAKVSVVEISGVKLIVTQN
soluble fraction (log2): 0.251

HMIETLGDATFKRLKAMILDGTLEPGTRLSEKKFADHLGVSRTPVREAIGQLVSEGLAKRSAGSAPVVSS
soluble fraction (log2): -0.0859

HMIFSIIPGQIRLTKMEIADGYLVLYGFTPSKEIYNLHLNPALKSIFTSSETSFIPVSGGLKFMSTNKL
soluble fraction (log2): -2.35

HMIGAKVLVNGQLHRDSYGEGPGQTESNATRLVNYINMKGSHPYHVTTLDGGWRGWVTADSVQV
soluble fraction (log2): 0.139

HMIGDNNELFQKAQLTPREKEVALLLLQGETNSDIAKILYVGLSTVKKHISSIFEKTKVKSRTEFISKVR
soluble fraction (log2): -1.6

HMIGDYALILNIKGGSDWYLGNRVELLFTDGTSKIVTTDKDYNAKKDMVPTQIVTYKVNDNGEYSLKALPT
soluble fraction (log2): -2.13

HMIGEKLKEIREKTGMNKKEFAQYLGLKYTTYNNYETEAREPASDFLILISTKFDVSIDYLLGLQ
soluble fraction (log2): -1.15
